Patent US20250250358A1

B1: Matuzumab Fab (Fab, INN chains, looked up, V domains shown)
VH: QVQLVQSGAEVKKPGASVKVSCKASGYTFTSHWMHWVRQAPGQGLEWIGEFNPSNGRTNYNEKFKSKATMTVDTSTNTAYMELSSLRSEDTAVYYCASRDYDYDGRYFDYWGQGTLVTVSS
VL: DIQMTQSPSSLSASVGDRVTITCSASSSVTYMYWYQQKPGKAPKLLIYDTSNLASGVPSRFSGSGSGTDYTFTISSLQPEDIATYYCQQWSSHIFTFGQGTKVEIK
modifications: Fab

Legend:
PD-L1 on cells [1] = molecular target: PD-L1 on cells (UniProt Q9NZQ7); experiment: flow cytometry, T24 R-WT cells incubated first with Atezolizumab Fab (50 nM); negative control [Cont.]
EGFR = EGFR (UniProt P00533); experiment: Fab KD, method not stated
PD-L1 on cells [2] = molecular target: PD-L1 on cells (UniProt Q9NZQ7); experiment: flow cytometry, T24 R-WT cells incubated first with Atezolizumab Fab (50 nM); Isotype Control-647 gives 480 [Cont.]

Sequence of UniProt Q9NZQ7 (Q9NZQ7 19-290 limits assumed): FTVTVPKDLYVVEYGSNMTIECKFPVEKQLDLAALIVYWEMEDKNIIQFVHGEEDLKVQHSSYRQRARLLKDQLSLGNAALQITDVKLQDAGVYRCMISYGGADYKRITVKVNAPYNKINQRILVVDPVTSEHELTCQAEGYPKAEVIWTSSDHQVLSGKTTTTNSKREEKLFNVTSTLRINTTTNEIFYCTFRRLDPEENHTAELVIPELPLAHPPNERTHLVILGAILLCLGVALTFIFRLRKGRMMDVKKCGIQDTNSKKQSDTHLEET

| Molecule | Kd (EGFR) [nM] | also measured |
| --- | --- | --- |
| Isotype Control-647 (antibody) | – | Median (APC) (PD-L1 on cells [1]): 480 |
| Necitumumab Fab | 6.1 | – |
| PD-L1 (D8T4X)-647 antibody | – | Median (APC) (PD-L1 on cells [2]): 8120 |
| B1 | 113 | – |
